This note sets out measurements from patent publication US20090117111A1 (XOMA TECHNOLOGY, published 2009).

For test [1], the target named is T1, human FcγRIIIa-158F (human, UniProt P08637 17-208, limits assumed).
T1 construct: also called FcγRIIIa aa158F allele
The test is described as follows: Biacore (SPR); ratio of KD against rituximab. In general terms: SPR reads the build-up and loss of mass on a sensor chip optically.

Test [2] addresses T1, human FcγRIIIa-158F. Put plainly: Biacore (SPR).
The target in another test is T2, human FcγRIIIa-158V (human, UniProt P08637 17-208).
T2 construct: also called FcγRIIIa aa158V allele
T2 sequence (P08637 17-208 F176V): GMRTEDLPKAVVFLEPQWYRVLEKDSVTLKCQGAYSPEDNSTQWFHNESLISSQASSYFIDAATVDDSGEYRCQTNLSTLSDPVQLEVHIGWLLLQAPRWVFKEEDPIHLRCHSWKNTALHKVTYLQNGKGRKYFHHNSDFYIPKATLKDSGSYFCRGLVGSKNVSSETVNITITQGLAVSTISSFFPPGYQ
The test is described as follows: Biacore (SPR).

T1 sequence (P08637 17-208 limits assumed): as the sequence (P08637 17-208 F176V) above, with V160F counted along it

B1: monoclonal antibody CHIR-12.12 (antibody, human IgG1, kappa)
heavy: not shown
light: DIVMTQSPLSLTVTPGEPASISCRSSQSLLYSNGYNYLDWYLQKPGQSPQVLISLGSNRASGVPDRFSGSGSGTDFTLKISRVEAEDVGVYYCMQARQTPFTFGPGTKVDIRRTVAAPSVFIFPPSDEQLKSGTASVVCLLNNFYPREAKVQWKVDNALQSGNSQESVTEQDSKDSTYSLSSTLTLSKADYEKHKVYACEVTHQGLSSPVTKSFNRGEC
notes: Fully human IgG1 kappa anti-CD40 antibody; also called CH12.12
As a reminder, the Kd is a measure of binding affinity in units of concentration. Read a high Kd as lower affinity. Turning to B1, the “fold higher affinity compared with rituximab” value with human FcγRIIIa-158F [1] worked out at 4.6 fold. For the same molecule, the Kd with human FcγRIIIa-158F [2] was 2800 nM; in the test with human FcγRIIIa-158V it was 492 nM.
